One may read the EC50 as the concentration giving half of the maximal effect. Lower therefore signals an effect from little substance. As usually defined, the Kd is a measure of binding affinity in units of concentration. Broadly, the koff is a measure of how fast the partners let go of each other. In general, kon refers to a measure of how fast the partners come together.

For experiment [1], the target named is T1, human CD3ε and CD3δ co-expressed on HEK293F cells (human, UniProt P07766 23-207; P04234 22-171).
T1 construct: also called huCD3ε/δ (transfected cells); huCD3e + huCD3d
Briefly: flow cytometry, transfected HEK293F. The method, then:
(§1) To analyze binding of antibodies to human CD3ε and human CD3δ expressed on the surface of cells, HEK293F cells were transfected with both constructs either alone or in co-transfection and signals were measured by flow cytometry. For transfection procedure FuGENE HD Transfection Reagent (Promega, #E2311) was used according to manufacturer's protocol.
(§2) Antibodies for staining were seeded at 1 μg in 50 μl per well Stain Buffer with FBS (BD Pharmingen) in 96-well U-bottom suspension culture plates (Greiner bio-one). Harvested transfected cells were resuspended in Stain Buffer with FBS and were added at 50 μl per well to the antibodies. Cells were incubated at 4° C. in the dark for 30 min and were washed twice. 0.5 μg secondary antibody Goat F(ab′)2 Anti-Human IgG-FITC (Beckman Coulter, #732598) or Goat F(ab′)2 Anti-Human kappa-PE (Southern Biotech, #206209), respectively, in combination with 0.5 μg 7-AAD per well was added in 100 μl Stain Buffer with FBS. Cells were incubated at 4° C. in the dark for 15 min and were washed twice. For measurement, cells were resuspended in 200 μl Stain Buffer with FBS. Cells were measured using the MACSQuant (Miltenyi Biotec) or LSRII (BD) flow cytometer, respectively. Further data analyses were performed using the FlowJo software (Tree Star, Inc.).
(In general: A flow cytometer gives signals particle by particle.)

For experiment [2], the target named is T2, human CD3ε expressed alone on HEK293F cells (human, UniProt P07766 23-207).
T2 construct: also called huCD3ε
Put plainly: flow cytometry, transfected HEK293F. The method, then: as §1, §2

Experiment [3] concerns the target T3, human CD3ε/δ-Fc fusion protein (soluble recombinant CD3ε/δ complex) (human, UniProt P04234 22-105).
T3 construct: also called huCD3ε/δ; huCD3; not shown: hinge, CH2, CH3 of human IgG with tag
Briefly: SPR, CD3-Fc captured, Fab 100 nM. As to the method: (§3) Binding was tested by SPR using a BIAcore3000 instrument run with HBS-EP buffer. Recombinant huCD3 proteins (ε/δ (PB01226), ε/γ (PB01225)) were captured at 10 μl/min via Fc-tag by anti-human Fc capture antibody MAB1302 (Millipore) immobilized on a CM5 sensor chip. Anti-CD3 Fabs were used as analytes at 100 nM with association and dissociation times of 240 sec and 300 sec, respectively at 30 μl/min. After each cycle the surfaces were regenerated by a 2 min pulse of 10 mM glycine buffer pH2.5.
For orientation: In SPR one partner is held on a chip, and binding of the other changes the refractive index at the surface.

Experiment [4] addresses recombinant huCD3ε/γ protein with Fc-tag (PB01225) (human, UniProt P07766 23-126; P09693 23-116). Put plainly: SPR, CD3-Fc captured, Fab 100 nM. The method, then: as §3
For experiment [5], the target named is T4, human CD3 (TCR complex) on primary human T cells or Jurkat cells (human, UniProt P07766 23-207).
T4 construct: on the cells it stands in the whole TCR/CD3 complex; also called Jurkat E6-1 (expressing human TCR)
Put plainly: flow cytometry, primary human T cells. As to the method: The binding capacity of the CD3-Fabs was determined by flow cytometry. Primary human T cells were used as target cells. Therefore, peripheral blood mononuclear cells (PBMCs) were isolated from 200 ml peripheral blood of healthy donors treated with EDTA by Ficoll density centrifugation. 15 ml Histopaque (Sigma-Aldrich) was preloaded on a 50 ml Leucosep-Tube (Greiner bio-one). Blood was diluted with autoMACS Rinsing Buffer+1% BSA (Miltenyi Biotec) and loaded on the membrane of a total of ten prepared tubes. Tubes were centrifuged without brake for 10 min at 1000 xg. PBMCs were collected and washed with autoMACS Rinsing Buffer+1% BSA three times. Finally, PBMCs were resuspended in autoMACS Running Buffer (Miltenyi Biotec) for isolation of T lymphocytes by autoMACSpro technology using the Pan T Cell isolation Kit (Miltenyi Biotec) according to manufacturer's instructions. Purity of separated T cells was analyzed by MACSQuant flow cytometry using the human 7-Color Immunophenotyping Kit (Miltenyi Biotec). Isolated T cells were resuspended in Stain Buffer with FBS (BD Pharmingen) and 1E5 cells in 100 μl per well were seeded in 96-well U-bottom suspension culture plates (Greiner bio-one). Fab antibodies were diluted 1:3 in serial in PBS (Invitrogen) and 5 μl each were added to the cells at a final maximum concentration of 30000 ng/ml. The assay was incubated for 45 min at 4° C. Cells were washed twice with Stain Buffer with FBS and 1 μg secondary antibody Goat F(ab′)2 Anti-Human kappa-FITC (Beckman Coulter, #732621) per well was added in 100 μl Stain Buffer with FBS per well. The assay was incubated for 20 min at 4° C. and washed twice afterwards. Cells were resuspended in 150 μl Stain Buffer with FBS per well and were measured using the MACSQuant (Miltenyi Biotec) or LSRII (BD) flow cytometer. Further data analyses were performed using the FlowJo software (Tree Star, Inc.). Read out was percentage of cells positive for antibody binding. Cells treated only with the secondary but no primary antibody were used to set the gates. EC50 Curves were calculated by XLfit (Algorithm 205), EC50 values were calculated as inflection point of the slope (data are shown in table 6).

The target of experiment [6] is T3, human CD3ε/δ-Fc fusion protein (soluble …). Briefly: SPR Biacore, Fab. As to the method: (§4) Binding affinities of anti-CD3 binding Fabs or CODV-Fabs were measured by surface plasmon resonance (SPR) using a Biacore3000 instrument (GE Healthcare). Assay buffer was HBS-EP (BR-1001-88, GE Healthcare). Capture of CD3ε/δ-Fc fusion proteins was achieved using the human antibody capture kit (GE Healthcare). […] The CD3εδ-Fc fusions proteins were captured at 10 μl/min to approx. 70 RU to yield Rmax values of 30 RU. Binding kinetics with the anti-CD3 Fabs or CODV-Fabs was measured at 30 μl/min for 240 sec. and 600 sec. for association and dissociation phase, respectively. Twofold dilutions of Fabs from 3 to 400 nM in assay buffer were used. All Fab concentrations were run in duplicate together with duplicate buffer blanks for double referencing. Regeneration of the capture surface was performed with a 1 min injection of 3M MgCl2 solution at 30 μl/min. For data analysis the BIAevaluation software v.4.1 (GE Healthcare) was used. Data were fit globally using a 1:1 Langmuir model with mass transfer.

The target is the same in experiment [7]. Put plainly: SPR Biacore, CD3εδ-Fc captured, Fab analyte. The method, then:
as §4

For experiment [8], the target named is T5, human CD3δ expressed alone on HEK293F cells (human, UniProt P04234 22-171).
T5 construct: entry includes the signal peptide; also called huCD3δ
Briefly: flow cytometry, HEK293F transfected with huCD3δ. The method, then:
as §1
Cells were incubated on a shaker at 37° C. and 5% CO2. At day one to three after transfection cells were harvested and binding of antibodies was analyzed by flow cytometry.
as §2

Experiment [9] addresses T3, human CD3ε/δ-Fc fusion protein (soluble …). Put plainly: SPR Biacore, Fab. As to the method: as §4
The source holds these as a separate data set.

In experiment [10] the target is human CD123 (IL3RA) on cells (human, UniProt P26951 19-378). Put plainly: cell-based or functional assay.
Sequence of human CD123 (IL3RA) on cells (P26951 19-378): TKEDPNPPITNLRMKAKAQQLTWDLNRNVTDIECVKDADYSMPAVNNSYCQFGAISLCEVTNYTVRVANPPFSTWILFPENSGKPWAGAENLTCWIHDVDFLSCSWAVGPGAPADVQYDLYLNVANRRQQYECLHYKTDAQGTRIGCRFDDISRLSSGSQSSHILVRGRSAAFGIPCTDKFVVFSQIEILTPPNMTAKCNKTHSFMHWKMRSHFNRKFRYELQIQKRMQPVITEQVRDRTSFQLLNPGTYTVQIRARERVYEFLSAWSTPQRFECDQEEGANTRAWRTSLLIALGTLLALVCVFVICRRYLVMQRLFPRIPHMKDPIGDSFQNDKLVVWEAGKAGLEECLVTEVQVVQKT

T3 sequence (chain, as listed by the source mutant, chain 1 of 2): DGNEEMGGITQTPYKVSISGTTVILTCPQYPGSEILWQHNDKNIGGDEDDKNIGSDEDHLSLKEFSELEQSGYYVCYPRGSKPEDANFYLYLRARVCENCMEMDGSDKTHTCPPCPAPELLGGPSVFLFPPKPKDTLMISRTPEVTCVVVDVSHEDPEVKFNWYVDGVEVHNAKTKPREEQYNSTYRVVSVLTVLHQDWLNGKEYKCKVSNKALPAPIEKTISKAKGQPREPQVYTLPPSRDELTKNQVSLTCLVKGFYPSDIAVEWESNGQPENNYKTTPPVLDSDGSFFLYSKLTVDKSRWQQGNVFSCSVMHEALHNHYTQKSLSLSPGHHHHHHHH
T3 sequence (P04234 22-105, stated change not applied, chain 2 of 2): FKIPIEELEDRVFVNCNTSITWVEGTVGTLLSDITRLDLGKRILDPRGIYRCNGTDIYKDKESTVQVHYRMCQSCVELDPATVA
T5 sequence (P04234 22-171 limits assumed, stated change not applied): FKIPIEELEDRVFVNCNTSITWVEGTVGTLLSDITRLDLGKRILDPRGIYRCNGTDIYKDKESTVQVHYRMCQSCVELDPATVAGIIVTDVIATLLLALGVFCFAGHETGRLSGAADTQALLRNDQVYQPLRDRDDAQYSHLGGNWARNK

B1: 18F5-H10 Fab (Fab, V domains shown)
VH: EVQVVETGGSLVQPGKSLKLTCATSGFTFTNAWMHWVRRSPEKQLEWVAQIKDKSNNYATYYAESVKGRFTISRDDSKSSIYLQMNSLKEEDTAIYYCRYVHYRFAYALDAWGRGTSVSVSS
VL: DVLMTQTPVSLSVSLGGQVSISCRSSQSLVHTNGNTYLSWYLQKPGQSPQLLIYKVSNRLSGISDRFSGSGSGTDFTLKISRVEPDDLGVYYCGQGTHYPFTFGAGTKLELKR
notes: also called BDX-18F5-H10
For B1, the results for the “% antibody positive transfected cells” value in [1] and in experiment [2] were 70.4% and 70.6%, respectively. The “RU of Fab binding at 100 nM” value worked out at 13 RU in [3] and 7 RU in [4]. The molecule further showed an EC50 in experiment [5] of 4.1 nM. For the same molecule, the dissociation constant Kd in experiment [6] worked out at 1 nM; in experiment [7], 0.89 nM. Also, the dissociation rate constant (koff) in [6] and in [7] was 0.00018 s⁻¹ throughout. Moreover, the on-rate constant (kon) in experiment [6] and in experiment [7] was 200000 M⁻¹ s⁻¹ in each case. For the same molecule, the binding result in experiment [8] is “no binding (tested: <20% of binding of huCD3e + huCD3d)”.

B2: 4E7-C9 Fab (Fab, V domains shown)
VH: EVQVVETGGSLVQPGKSLKLTCATSGFTFSNAWMHWVRQSPEKQLEWVAQIKDKSNNYATYYAESLKGRFTISRDDPKRSIYLQMNSLREEDTAIYYCRYVHYGIGYAMDAWGQGTSVTVSS
VL: DVVMTQTPVSLSVSLGGQVSISCRSSQSLEHNNGNTYLSWYLQKPGQSPQPLIYKVSNRFSGISDRFSGSGSGTDFTLKISRVEPDDLGVYYCGQGTQYPFTFGPGTKLELKR
notes: also called BDX-4E7-C9
Take B2: the “% antibody positive transfected cells” value in experiment [1] came to 66.4%; in experiment [2], 69%. The figures for the “RU of Fab binding at 100 nM” value in [3] and in experiment [4] were 8 RU and 6 RU, respectively. In addition, a half-maximal effect in experiment [5] (EC50) was put at 6.2 nM. In addition, the equilibrium dissociation constant (Kd) in experiment [6] and in experiment [7] was 17 nM throughout. Further, the koff was found to be 0.0015 s⁻¹ in experiment [6] and 0.0016 s⁻¹ in experiment [7]. In addition, the association rate constant (kon) in experiment [6] and in experiment [7] was 89000 M⁻¹ s⁻¹ throughout. In experiment [8], the binding result is “no binding (tested: <20% of binding of huCD3e + huCD3d)”.

B3: 20G6-F3 Fab (Fab, V domains shown)
VH: EVQLVETGGSLVQPGKSLKLTCATSGFTFTKAWMHWVRQSPEKQLEWVAQIKDKSNSYATYYAESVKGRFTISRDDSKSTIYLQMNSLKEEDTAIYYCRGVYYALSPFDYWGQGVMVTVSS
VL: DVVMTQTPVSLSVSLGGQVSISCRSSQSLVHNNGNTYLSWYLQKPGQSPQSLIYKVSNRFSGFSDRFSGSGSGTDFTLKISRVDPDDLGVYYCGQGTQYPFTFGSGTKLEIKR
notes: also called BDW-20G6-F3
For the molecule B3, the “% antibody positive transfected cells” value was found to be 67.4% in experiment [1] and 68.6% in experiment [2]. The “RU of Fab binding at 100 nM” value in experiment [3] is 7 RU; in experiment [4], 4 RU. Also, the EC50 in [5] worked out at 14 nM. The dissociation constant Kd in [6] worked out at 8 nM; in experiment [7], 7.7 nM. The koff in [6] and in experiment [7] was 0.00027 s⁻¹ each time. Also, the on-rate constant (kon) in experiment [6] and in experiment [7] was 35000 M⁻¹ s⁻¹ throughout. Moreover, the binding result in experiment [8] is reported as “no binding (tested: <20% of binding of huCD3e + huCD3d)”.

B4: 4B4-D7 Fab (Fab, V domains shown)
VH: EVQLVETGGRLVQPGRSLKLTCATSGFTFSNAWMHWVRQSPEKQLEWVAQIKARSNNYATYYAESVKGRFTISRDDSKSTIYLQMNSLKEEDTAIYYCRGTYYASKPFDYWGQGVMVTVSS
VL: DVVMTQTPVSLSVSLGGQVSISCRSSQSLVHDNGNTYLSWSLQRPGQSPQVLIYKVSNRFSGTSDRFTGSGSGTDFTLKISRVEPDDLGVYYCGQGTQYPFTFGSGTKLEIKR
notes: also called BDW-4B4-D7
Turning to B4, the results for the “% antibody positive transfected cells” value in experiment [1] and in experiment [2] were 69.5% and 71.5%, respectively. Further, the results for the “RU of Fab binding at 100 nM” value in [3] and in [4] were 11 RU and 3 RU, respectively. Also, the EC50 in experiment [5] was found to be 15.3 nM. The equilibrium dissociation constant (Kd) in experiment [9] is 8.79 nM; in [6], 27 nM; in experiment [7], 27 nM. Moreover, the off-rate constant (koff) in experiment [9] is 0.00285 s⁻¹; in experiment [6], 0.0029 s⁻¹; in [7], 0.0029 s⁻¹. The kon was 326000 M⁻¹ s⁻¹ in experiment [9], 110000 M⁻¹ s⁻¹ in [6] and 110000 M⁻¹ s⁻¹ in experiment [7]. For the same molecule, the binding result in experiment [8] was “no binding (tested: <20% of binding of huCD3e + huCD3d)”.

B5: CODV-Fab 7G3x18F5 antibody-like binding protein (bispecific antibody)
light: DVLMTQTPVSLSVSLGGQVSISCRSSQSLVHTNGNTYLSWYLQKPGQSPQLLIYKVSNRLSGISDRFSGSGSGTDFTLKISRVEPDDLGVYYCGQGTHYPFTFGAGTKLELKGQPKAAPDFVMTQSPSSLTVTAGEKVTMSCKSSQSLLNSGNQKNYLTWYLQKPGQPPKLLIYWASTRESGVPDRFTGSGSGTDFTLTISSVQAEDLAVYYCQNDYSYPYTFGGGTKLEIKTKGPSRTVAAPSVFIFPPSDEQLKSGTASVVCLLNNFYPREAKVQWKVDNALQSGNSQESVTEQDSKDSTYSLSSTLTLSKADYEKHKVYACEVTHQGLSSPVTKSFNRGEC
heavy: EVQLQQSGPELVKPGASVKMSCKASGYTFTDYYMKWVKQSHGKSLEWIGDIIPSNGATFYNQKFKGKATLTVDRSSSTAYMHLNSLTSEDSAVYYCTRSHLLRASWFAYWGQGTLVTVSASEVQVVETGGSLVQPGKSLKLTCATSGFTFTNAWMHWVRRSPEKQLEWVAQIKDKSNNYATYYAESVKGRFTISRDDSKSSIYLQMNSLKEEDTAIYYCRYVHYRFAYALDAWGRGTSVSVSSRTASTKGPSVFPLAPSSKSTSGGTAALGCLVKDYFPEPVTVSWNSGALTSGVHTFPAVLQSSGLYSLSSVVTVPSSSLGTQTYICNVNHKPSNTKVDKKVEPKSCDKTHTHHHHHH
As for B5, the “Activity EC50 [ng/ml], cytotoxic assay on THP-1 with human T cells” value in experiment [10] is 61 ng/mL.
